Reference: patent publication US8466107B2, “Fibrin-binding peptides and conjugates thereof” (Bracco Imaging SpA, priority 2006, dated 2013)
Numbered stars: 1 amine (or outer) side, 2 acyl side, 3 side chain; on linkers, the order of the positions; unused ones are H or OH. Bridge positions count the residues as written; N and C are the ends. Square brackets hold non-standard residues; d marks the D form. Side chains are listed from the residue outwards. Ends that are not written are not given here. * marks the point of attachment. DSPE = distearoyl phosphatidylethanolamine, CCCCCCCCCCCCCCCCCC(=O)OC[C@H](COP(=O)(O)OCCN*)OC(=O)CCCCCCCCCCCCCCCCC; DPPE = CCCCCCCCCCCCCCCC(=O)OC[C@H](COP(=O)(O)OCCN*)OC(=O)CCCCCCCCCCCCCCC; Tuda = 3,6,9-trioxaundecane-1,11-dioyl, O=C(COCCOCCOCC(=O)[*:3])[*:2]; Glutaryl = O=C(CCCC(=O)[*:2])[*:1]; PG4 = not defined here; AEEA = NCCOCCOCC(=O)O

Experiments:
[1] = tested on: neuroblastoma (Neuro-2a) tumor; assay: In vivo MRI test of fibrin imaging in neuroblastoma tumor mouse model; conditions: mice with neuroblastoma tumor; 25 μmol/kg iv.; T1 weighted MRI at 2T, 4 h post injection
Excerpt: Three groups of 5 mice each, inoculated with 2·10^6 neuroblastoma cells with PBS, were formed and tested as follows: • Group a: Reference compound 2, • Group b: Chelate Complex 1 • Group c: ProHance® (see Protocol)
At day-10 post tumor cells inoculation, at least 4 mice per group with similar tumor size (5-10 mm in diameter) were selected for the in vivo MRI tests. After pre-contrast MRI acquisition (T1 and T2 high resolution 2D spin-echo and 3D gradient echo images), the test compounds were administered (25 μmol/kg iv.) and MRI was performed at 4 h and 24 h post injection. Maximum signal intensity was measured in the entire tumor area and in each post contrast image covering the whole tumor and the signal was compared to the pre-contrast images. At the end of MRI exams, all animals were sacrificed and the tumor, blood, liver, kidneys and femoral bone were removed and prepared for Gd assay by ICP-AES. […]
The mean signal intensity was measured within a region of interest (ROI) including the entire tumor, drawn by an operator on each MR image using dedicated software (MR Research Systems Ltd, Surrey UK). Signal intensity enhancement (Enh %) was determined as: Enh%=100*(SIx(t)−SI0)/SI0 […]

[2] = molecular target: T1, fibrin (Homo sapiens, UniProt P02671+P02675+P02679); assay: Dynamic binding test of targeted microvesicles on fibrin-coated coverslips in a parallel-plate flow chamber; conditions: shear rate about 114 s^-1, 10 min, 50% human plasma
T1 sequence (P02671 36-629 limits assumed): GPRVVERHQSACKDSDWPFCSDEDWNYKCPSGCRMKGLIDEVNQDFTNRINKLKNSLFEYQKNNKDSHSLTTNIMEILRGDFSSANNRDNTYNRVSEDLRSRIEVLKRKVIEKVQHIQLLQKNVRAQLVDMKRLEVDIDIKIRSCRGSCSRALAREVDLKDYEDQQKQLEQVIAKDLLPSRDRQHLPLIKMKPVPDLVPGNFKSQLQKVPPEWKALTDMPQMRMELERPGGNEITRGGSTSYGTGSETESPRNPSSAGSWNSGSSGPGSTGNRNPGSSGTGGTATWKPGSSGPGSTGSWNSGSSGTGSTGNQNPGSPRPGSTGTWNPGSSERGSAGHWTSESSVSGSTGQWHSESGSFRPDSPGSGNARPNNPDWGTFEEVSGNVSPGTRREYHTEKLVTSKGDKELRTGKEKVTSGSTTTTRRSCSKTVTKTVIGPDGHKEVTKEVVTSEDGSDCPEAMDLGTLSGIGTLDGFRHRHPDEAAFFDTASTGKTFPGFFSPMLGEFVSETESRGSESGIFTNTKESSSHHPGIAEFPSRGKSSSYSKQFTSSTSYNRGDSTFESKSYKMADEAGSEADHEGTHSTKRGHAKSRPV
T1 sequence (P02675 45-491 limits assumed): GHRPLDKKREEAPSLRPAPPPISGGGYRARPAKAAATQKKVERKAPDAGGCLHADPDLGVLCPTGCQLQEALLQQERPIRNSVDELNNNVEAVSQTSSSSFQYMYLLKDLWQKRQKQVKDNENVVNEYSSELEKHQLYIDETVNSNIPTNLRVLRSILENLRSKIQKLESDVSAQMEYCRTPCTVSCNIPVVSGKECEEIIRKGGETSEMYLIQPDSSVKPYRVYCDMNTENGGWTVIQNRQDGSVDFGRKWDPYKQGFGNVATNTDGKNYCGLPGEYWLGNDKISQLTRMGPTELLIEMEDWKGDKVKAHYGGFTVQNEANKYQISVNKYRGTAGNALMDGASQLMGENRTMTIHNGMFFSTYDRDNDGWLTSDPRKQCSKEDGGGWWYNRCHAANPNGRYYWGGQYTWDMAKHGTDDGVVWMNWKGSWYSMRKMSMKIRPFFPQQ
T1 sequence (P02679 27-437 isoform P02679-2 limits assumed): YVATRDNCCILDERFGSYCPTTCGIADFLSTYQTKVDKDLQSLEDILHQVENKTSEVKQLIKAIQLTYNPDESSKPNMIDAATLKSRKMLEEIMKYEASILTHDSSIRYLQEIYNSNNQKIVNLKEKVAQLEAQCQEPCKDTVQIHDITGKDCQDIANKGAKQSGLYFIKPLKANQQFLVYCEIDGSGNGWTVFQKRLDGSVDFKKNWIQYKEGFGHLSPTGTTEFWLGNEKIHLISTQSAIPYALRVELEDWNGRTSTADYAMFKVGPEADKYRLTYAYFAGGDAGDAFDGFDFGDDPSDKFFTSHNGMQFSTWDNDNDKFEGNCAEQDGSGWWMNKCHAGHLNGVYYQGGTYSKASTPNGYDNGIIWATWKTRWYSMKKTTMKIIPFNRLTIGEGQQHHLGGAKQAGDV
Procedure: Glass coverslips (40 mm in diameter, Bioptechs Inc., Butler, Pa., USA) were coated with fibrin according the following methodology.
Five mL of a solution of BSA 1% w/v in PBS pH 7.4 were added into a 60 mm Petri Dish containing one coverslip, and incubated at 37° C. for 15 min. Then the coverslip was washed three times with 5 ml of Tween 80/PBS (0.1%, v:v). Twenty five μL of human thrombin solution at 5 U/mL were added per mL of human fibrinogen solution (0.5 mg/mL in 50 mM sodium phosphate, NaCl 280 mM, pH 7.4) and delicately mixed. Five mL of this solution were immediately distributed in each Petri dish. The coverslips were incubated for one hour at 37° C. and then dried overnight at 45° C.
Binding studies of targeted microvesicles were carried out using a parallel-plate flow chamber (FCS2, Bioptech Inc., Butler, Pa., USA) with a chamber gasket of 0.25 mm in thickness, with a customized adapter for upside-down chamber inversion. The coated coverslip was inserted as a plate of the flow chamber. Gas-filled Microvesicles (5×10^6 bubbles/mL in 50% human plasma in PBS) were drawn through the flow chamber using an adjustable infusion pump (Auto Syringe® AS50 Infusion Pump, Baxter, Deerfield, Ill., USA) with a 60 mL syringe (Terumo). The pump flow rate was adjusted to 1 mL/min to obtain the desired shear rate of about 114 s^−1. After 10 minutes, the flow was stopped and pictures were taken randomly on different positions on the coverslip (on surfaces of about 0.025 mm^2) using a 40× objective and a CCD monochrome camera (F-View II, Soft Imaging Systems, Germany) connected to an inverted Olympus IX 50 microscope. The number of microvesicles on each picture was determined, averaged with respect to the total number of pictures and the obtained value was then divided by ten (to obtain the “slope”, i.e. the average amount of bound microvesicles per minute).
For each preparation of Examples 17-20, the binding assay was repeated four times thus obtaining an average value of the slope. The slope represents the microvesicle binding rate on the target substrate. […] A higher slope indicates a better capacity of microvesicles to bind to the target under flow conditions.

[3] = microvesicles with DSPC/DSPG envelope, Examples 19C-19E (0.45 μmoles lipopeptide, 0.45 μmoles DSPE-PEG1000)
[4] = microvesicles with DSPC/stearate envelope containing the lipopeptide (Examples 20A-20D)
[5] = microvesicles with DPPE/DPPG envelope containing the lipopeptide (Examples 18A-18C), slope = average bound microvesicles per minute
[6] = microvesicles with DSPC/DPPG envelope containing the lipopeptide (Examples 17A-17B, molar ratio 47.5/47.5/5), slope = average bound microvesicles per minute
[7] = microvesicles with DSPC/DSPA envelope, 0.26 μmoles lipopeptide (Examples 20E, 20G, 20H)

Compound | Slope [2, 3] | Slope [2, 4] | Slope [2, 5] | Slope [2, 7] | further results
CC(O)CN1CCN(CC(=O)[O-])CCN(CC(=O)[O-])CCN(CC(=O)[O-])CC1.[Gd+3] (stereo not shown) [ProHance®, reference compound] |  |  |  |  | tumor signal enhancement [1]: no signal enhancement was observed inside the tumors
Ac-SGSGJWQPC*PWESWTFC*WDPGGGK(DSPE-PG4-Glut)-NH2 (Ac-SGSG[AEEA]WQPCPWESWTFCWDPGGGK-NH2; disulfide 9-17; not fully specified (residue 24); printed as Ac-SGSGJWQPC*PWESWTFC*WDPGGGK(DSPE-PG4-Glut)-NH2) [Seq017-PL1] |  | 3.1 | 8.9 |  | 
Ac-WQPC*PWESWTFC*WDPGGGK(DPPE-PG4-Glut)-NH2 (Ac-WQPCPWESWTFCWDPGGGK([Glutaryl-PG4-DPPE])-NH2; disulfide 4-12; reading uncertain) [Seq000-PL1, reference compound] |  | 1.6 | 4.8 |  | Slope [2, 6]: 6.44; Slope ([2]; microvesicles with DSPC/DSPG envelope, Example 19A (0.63 μmole lipopeptide, 0.28 μmole DSPE-PEG1000)): 4.4; Slope ([2]; microvesicles with DSPC/DSPG envelope, Example 19B (0.36 μmole lipopeptide, 1.44 μmoles DSPE-PEG1000)): 4.9
Seq000-PL2: comparative lipopeptide prepared from Seq000(Adoa-Adoa) and DPPE (Ac-WQPCPWESWTFCWDPGGGK([AEEA-AEEA-Tuda-DPPE])-NH2; disulfide 4-12) [reference compound] |  |  |  | 4.6 | 

The next lines start with results.

Slope [2, 3] | Slope [2, 4] | Slope [2, 5] | Slope [2, 7] | Compound | further results
11.5 | 8.4 |  |  | Ac-GWQPC*PWESWTFC*WDPGGGK(DSPE-PG4-Glut)-NH2 (Ac-GWQPCPWESWTFCWDPGGGK([Glutaryl-PG4-DSPE])-NH2; disulfide 5-13; reading uncertain; also: printed as Ac-GWQPC*PWESWTFC*WDPGGGK(DSPE-PG4-Glut)-NH2) [Seq016-PL1] | 
6.2 |  |  |  | Ac-SGSGSGSGWQPC*PWESWTFC*WDPGGGK(DSPE-PG4-Glut)-NH2 (Ac-SGSGSGSGWQPCPWESWTFCWDPGGGK([Glutaryl-PG4-DSPE])-NH2; disulfide 12-20; reading uncertain; also: printed as Ac-SGSGSGSGWQPC*PWESWTFC*WDPGGGK(DSPE-PG4-Glut)-NH2) [Seq024-PL1] | 
 | 6.1 | 7.2 |  | Ac-WQPC*PAESWTFC*WDPGGGK(DSPE-PG4-Glut)-NH2 (Ac-WQPCPAESWTFCWDPGGGK([Glutaryl-PG4-DSPE])-NH2; disulfide 4-12; reading uncertain; also: printed as Ac-WQPC*PAESWTFC*WDPGGGK(DSPE-PG4-Glut)-NH2) [Seq005-PL1] | Slope [2, 6]: 8.54
 |  |  | 6.0 | Ac-WQPCPAESWTFCWDPGAGSGK(DPPE-Pro9-Glut-Ttda-Dga)-NH2 (Ac-WQPCPAESWTFCWDPGAGSGK-NH2; disulfide 4-12 (inferred); not fully specified (residue 21)) [Seq005-PL5] | 
 |  |  | 6.4 | Ac-WQPCPAESWTFCWDPGSAGSK(DPPE-Pro9-Glut-Ttda-Dga)-NH2 (Ac-WQPCPAESWTFCWDPGSAGSK-NH2; disulfide 4-12 (inferred); not fully specified (residue 21)) [Seq005-PL4] | Slope ([2]; microvesicles with DSPC/DSPA envelope, 0.795 μmoles lipopeptide (Example 20F)): 8.0
8.5 |  |  |  | RWQPC*PWESWTFC*WDPGGGK(DSPE-PG4-Glut)-NH2 (RWQPCPWESWTFCWDPGGGK([Glutaryl-PG4-DSPE])-NH2; disulfide 5-13; reading uncertain; also: printed as RWQPC*PWESWTFC*WDPGGGK(DSPE-PG4-Glut)-NH2) [Seq023-PL1] | 
